# Results reported in patent publication US20200369754A1 (published 2020).
# B1: CBTAU-28.1 (S32R[VL];E35K[VL]) (antibody, V domains shown)
# VH: QVQLQQSGAEVKKPGESLKISCEASGYSFTNYWIGWVRQMPGKGLEWMGIIYPGDSDTRYSPPFQGQVTITADRSITTAYLEWSSLKASDTAMYYCARVGRPSKGGWFDPWGQGTLVTVSS
# VL: DIQMTQSPDSLAVSLGERATINCESSQTLLYRSNKKNYLAWYQQKPGQPPKLLISWASTPESGVPDRFSGSGSGTSFTLTISSLQAEDVAVYYCQQYYNSPYTFGQGTRLEIK
# Target: T1, Tau peptide A6940 (biotin (bound via biotin to a streptavidin biosensor in the Octet assay; position of the biotin not stated))
# T1 peptide: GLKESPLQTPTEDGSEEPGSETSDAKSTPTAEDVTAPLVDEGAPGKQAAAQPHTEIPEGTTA
# Experiment: ITC
binder,measurement,value
B1,Kd,220 nM
